Test results: patent US20240400614A1, “CLEAVABLE PEPTIDES AND METHODS OF USE THEREOF” (Bright Peak Therapeutics AG, priority 2023, published 2024)
Square brackets hold non-standard residues; d marks the D form. Ends that are not written are not given here. Tyr(3-NO2) = N[C@@H](Cc1ccc(O)c([N+](=O)[O-])c1)C(=O)O; 2Abz = Nc1ccccc1C(=O)O

Legend:
Format in all cases: biochemical
uPA = uPA (Homo sapiens, UniProt P00749); assay: FRET peptide cleavage efficiency with uPA
matriptase = molecular target: T1, matriptase (Homo sapiens, UniProt Q9Y5Y6); assay: FRET peptide cleavage efficiency with matriptase
T1 construct: purchased R&D Systems 3946-SEB
T1 sequence (Q9Y5Y6 615-855 limits assumed): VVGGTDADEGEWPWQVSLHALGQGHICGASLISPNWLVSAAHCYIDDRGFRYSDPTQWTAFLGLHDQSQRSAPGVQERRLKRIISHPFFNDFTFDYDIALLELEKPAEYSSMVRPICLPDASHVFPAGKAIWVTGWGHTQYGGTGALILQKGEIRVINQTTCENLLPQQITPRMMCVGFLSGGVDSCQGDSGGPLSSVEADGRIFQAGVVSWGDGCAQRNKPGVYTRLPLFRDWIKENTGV

MMP-2 = molecular target: T2, MMP-2 (Homo sapiens, UniProt P08253); assay: FRET peptide cleavage efficiency with MMP-2
T2 construct: purchased SIGMA PF023
T2 sequence (P08253 110-660): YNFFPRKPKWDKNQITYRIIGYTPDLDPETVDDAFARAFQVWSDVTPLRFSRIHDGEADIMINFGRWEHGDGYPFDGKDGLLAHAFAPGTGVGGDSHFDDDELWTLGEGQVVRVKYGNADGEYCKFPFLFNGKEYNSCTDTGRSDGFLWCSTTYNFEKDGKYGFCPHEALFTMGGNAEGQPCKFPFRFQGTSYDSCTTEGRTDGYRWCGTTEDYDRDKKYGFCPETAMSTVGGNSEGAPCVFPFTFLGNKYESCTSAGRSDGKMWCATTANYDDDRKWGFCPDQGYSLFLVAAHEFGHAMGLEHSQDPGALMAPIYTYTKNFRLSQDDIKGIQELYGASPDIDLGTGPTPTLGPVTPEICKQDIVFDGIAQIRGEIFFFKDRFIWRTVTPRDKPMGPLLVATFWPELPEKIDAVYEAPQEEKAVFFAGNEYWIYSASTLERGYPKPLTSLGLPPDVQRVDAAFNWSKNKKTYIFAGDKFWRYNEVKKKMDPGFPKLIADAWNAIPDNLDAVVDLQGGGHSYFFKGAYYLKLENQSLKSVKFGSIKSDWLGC

MMP-7 = molecular target: T3, MMP-7 (Homo sapiens, UniProt P09237); assay: FRET peptide cleavage efficiency with MMP-7 (standard pH 7.5; also pH 6.5)
T3 construct: purchased SIGMA CC1059
T3 sequence (P09237 95-267): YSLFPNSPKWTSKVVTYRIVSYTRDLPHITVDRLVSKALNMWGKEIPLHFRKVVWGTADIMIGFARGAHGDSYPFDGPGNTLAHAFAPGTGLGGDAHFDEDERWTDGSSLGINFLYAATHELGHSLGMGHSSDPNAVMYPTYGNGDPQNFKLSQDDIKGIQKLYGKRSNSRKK

MMP-9 = molecular target: T4, MMP-9 (Homo sapiens, UniProt P14780); assay: FRET peptide cleavage efficiency with MMP-9 (standard pH 7.5; also pH 6.5)
T4 construct: purchased SIGMA PF024
T4 sequence (P14780 94-707): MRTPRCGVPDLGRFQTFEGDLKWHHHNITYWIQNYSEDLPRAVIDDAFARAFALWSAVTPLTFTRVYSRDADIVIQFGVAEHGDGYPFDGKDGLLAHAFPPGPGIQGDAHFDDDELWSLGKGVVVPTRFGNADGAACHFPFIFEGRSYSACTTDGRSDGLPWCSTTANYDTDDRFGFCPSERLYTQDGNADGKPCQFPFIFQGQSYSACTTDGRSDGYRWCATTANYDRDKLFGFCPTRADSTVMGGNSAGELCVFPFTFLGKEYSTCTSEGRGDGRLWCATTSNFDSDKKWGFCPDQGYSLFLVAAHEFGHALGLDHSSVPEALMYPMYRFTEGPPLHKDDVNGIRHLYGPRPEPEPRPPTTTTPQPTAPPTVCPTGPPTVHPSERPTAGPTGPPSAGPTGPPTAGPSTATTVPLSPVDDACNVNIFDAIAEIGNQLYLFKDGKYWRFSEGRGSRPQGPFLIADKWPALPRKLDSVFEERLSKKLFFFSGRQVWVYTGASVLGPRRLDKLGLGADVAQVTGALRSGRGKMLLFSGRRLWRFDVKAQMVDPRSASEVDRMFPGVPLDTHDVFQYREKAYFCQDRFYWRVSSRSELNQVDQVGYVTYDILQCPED

[1] = t = 15 min, standard conditions (Table 8)
[2] = t = 60 min, standard conditions (Table 8)
[3] = t = 120 min, standard conditions (Table 8)

SGRVLRKAGPANLVG ([2Abz]SGRVLRKAGPANLVG[Tyr(3-NO2)]-NH2) [LNK014]
% cleavage uPA t = 60 min (uPA; pH 6.5, t = 60 min (Table 7)): 0%
% cleavage uPA t = 120 min (uPA; pH 6.5, t = 120 min (Table 7)): 0%
% cleavage uPA t = 60 min (uPA; pH 7.5, t = 60 min (Table 7)): 0%
% cleavage uPA t = 120 min (uPA; pH 7.5, t = 120 min (Table 7)): 0%
% cleavage uPA t = 15 min (uPA; t = 15 min, 200 uM linker, 1 ug/ml protease, 37° C., buffer A pH 8.5): 0%
% cleavage uPA t = 60 min (uPA; t = 60 min, 200 uM linker, 1 ug/ml protease, 37° C., buffer A pH 8.5): 2%
% cleavage uPA t = 120 min (uPA; t = 120 min, 200 uM linker, 1 ug/ml protease, 37° C., buffer A pH 8.5): 7%
% cleavage Matriptase t = 15 min (matriptase; pH 6.5, t = 15 min (Table 7)): 70%
% cleavage Matriptase t = 60 min (matriptase; pH 6.5, t = 60 min (Table 7)): 100%
% cleavage Matriptase t = 15 min (matriptase; pH 7.5, t = 15 min (Table 7)): 100%
% cleavage Matriptase t = 60 min (matriptase; pH 7.5, t = 60 min (Table 7)): 100%
% cleavage Matriptase t = 15 min (matriptase; t = 15 min, 200 uM linker, 1 ug/ml protease, 37° C., buffer B pH 9.0): 97%
% cleavage Matriptase t = 60 min (matriptase; t = 60 min, 200 uM linker, 1 ug/ml protease, 37° C., buffer B pH 9.0): 95%
% cleavage Matriptase t = 120 min (matriptase; 200 uM linker, 1 ug/ml protease, 37° C., buffer B pH 9.0): 95%
% cleavage MMP-2 t = 15 min (MMP-2; pH 6.5, t = 15 min (Table 7)): 100%
% cleavage MMP-2 t = 60 min (MMP-2; pH 6.5, t = 60 min (Table 7)): 100%
% cleavage MMP-2 t = 15 min (MMP-2; pH 7.5, t = 15 min (Table 7)): 100%
% cleavage MMP-2 t = 60 min (MMP-2; pH 7.5, t = 60 min (Table 7)): 100%
% cleavage MMP-2 t = 15 min (MMP-2; t = 15 min (Table 9)): 91%
% cleavage MMP-2 t = 15 min (MMP-2; t = 15 min, 200 uM linker, 1 ug/ml protease, 37° C., buffer C pH 7.5): 93%
% cleavage MMP-2 t = 60 min (MMP-2; t = 60 min (Table 9)): 96%
% cleavage MMP-2 t = 60 min (MMP-2; t = 60 min, 200 uM linker, 1 ug/ml protease, 37° C., buffer C pH 7.5): 97%
% cleavage MMP-2 t = 120 min (MMP-2; t = 120 min (Table 9)): 100%
% cleavage MMP-2 t = 120 min (MMP-2; t = 120 min, 200 uM linker, 1 ug/ml protease, 37° C., buffer C pH 7.5): 97%
% cleavage MMP-7 t = 15 min (MMP-7; t = 15 min (Table 9)): 25%
% cleavage MMP-7 t = 60 min (MMP-7; t = 60 min (Table 9)): 79%
% cleavage MMP-7 t = 120 min (MMP-7; t = 120 min (Table 9)): 100%
% cleavage MMP-9 t = 15 min (MMP-9; t = 15 min (Table 9)): 98%
% cleavage MMP-9 t = 60 min (MMP-9; t = 60 min (Table 9)): 99%
% cleavage MMP-9 t = 120 min (MMP-9; t = 120 min (Table 9)): 100%

RQRKVANLVG ([2Abz]RQRKVANLVG[Tyr(3-NO2)]-NH2) [LNK032]
% vcleavage uPA t = 15 min (uPA; [1]): 0%
% cleavage uPA t = 60 min (uPA; [2]): 0%
% cleavage uPA t = 120 min (uPA; [3]): 0%
% cleavage Matriptase t = 15 min (matriptase; [1]): 81%
% cleavage Matriptase t = 60 min (matriptase; [2]): 100%
% cleavage Matriptase t = 120 min (matriptase; standard conditions (Table 8)): 100%
% cleavage MMP-2 t = 15 min (MMP-2; t = 15 min (Table 9)): 81%
% cleavage MMP-2 t = 60 min (MMP-2; t = 60 min (Table 9)): 100%
% cleavage MMP-2 t = 60 min (MMP-2; [2]): 100%
% cleavage MMP-2 t = 120 min (MMP-2; t = 120 min (Table 9)): 100%
% cleavage MMP-2 t = 120 min (MMP-2; [3]): 100%
% cleavage MMP-7 t = 15 min (MMP-7; t = 15 min (Table 9)): 20%
% cleavage MMP-7 t = 15 min (MMP-7; [1]): 20%
% cleavage MMP-7 t = 60 min (MMP-7; t = 60 min (Table 9)): 72%
% cleavage MMP-7 t = 60 min (MMP-7; [2]): 72%
% cleavage MMP-7 t = 120 min (MMP-7; t = 120 min (Table 9)): 95%
% cleavage MMP-7 t = 120 min (MMP-7; [3]): 95%
% cleavage MMP-9 t = 15 min (MMP-9; t = 15 min (Table 9)): 53%
% cleavage MMP-9 t = 15 min (MMP-9; [1]): 53%
% cleavage MMP-9 t = 60 min (MMP-9; t = 60 min (Table 9)): 100%
% cleavage MMP-9 t = 60 min (MMP-9; [2]): 100%
% cleavage MMP-9 t = 120 min (MMP-9; t = 120 min (Table 9)): 100%
% cleavage MMP-9 t = 120 min (MMP-9; [3]): 100%

RGRKPYMLQG ([2Abz]RGRKPYMLQG[Tyr(3-NO2)]-NH2) [LNK035]
% vcleavage uPA t = 15 min (uPA; [1]): 0%
% cleavage uPA t = 60 min (uPA; [2]): 0%
% cleavage uPA t = 120 min (uPA; [3]): 0%
% cleavage Matriptase t = 15 min (matriptase; [1]): 67%
% cleavage Matriptase t = 60 min (matriptase; [2]): 100%
% cleavage Matriptase t = 120 min (matriptase; standard conditions (Table 8)): 100%
% cleavage MMP-2 t = 15 min (MMP-2; t = 15 min (Table 9)): 33%
% cleavage MMP-2 t = 60 min (MMP-2; t = 60 min (Table 9)): 77%
% cleavage MMP-2 t = 60 min (MMP-2; [2]): 77%
% cleavage MMP-2 t = 120 min (MMP-2; t = 120 min (Table 9)): 91%
% cleavage MMP-2 t = 120 min (MMP-2; [3]): 91%
% cleavage MMP-7 t = 15 min (MMP-7; t = 15 min (Table 9)): 28%
% cleavage MMP-7 t = 15 min (MMP-7; [1]): 28%
% cleavage MMP-7 t = 60 min (MMP-7; t = 60 min (Table 9)): 80%
% cleavage MMP-7 t = 60 min (MMP-7; [2]): 80%
% cleavage MMP-7 t = 120 min (MMP-7; t = 120 min (Table 9)): 95%
% cleavage MMP-7 t = 120 min (MMP-7; [3]): 95%
% cleavage MMP-9 t = 15 min (MMP-9; t = 15 min (Table 9)): 42%
% cleavage MMP-9 t = 15 min (MMP-9; [1]): 42%
% cleavage MMP-9 t = 60 min (MMP-9; t = 60 min (Table 9)): 100%
% cleavage MMP-9 t = 60 min (MMP-9; [2]): 100%
% cleavage MMP-9 t = 120 min (MMP-9; t = 120 min (Table 9)): 100%
% cleavage MMP-9 t = 120 min (MMP-9; [3]): 100%
